In patent publication US20020052476A1 (Human Genome Sciences, published 2002):

Assays:
[1] = target: T1, papain (EC 3.4.22.2; from Sigma) (UniProt P00784 134-345); test: titration of papain activity (Bz-Arg-pNA hydrolysis) with varying inhibitor concentrations; linear titration curves
T1 construct: Commercial enzyme
T1 sequence (looked up): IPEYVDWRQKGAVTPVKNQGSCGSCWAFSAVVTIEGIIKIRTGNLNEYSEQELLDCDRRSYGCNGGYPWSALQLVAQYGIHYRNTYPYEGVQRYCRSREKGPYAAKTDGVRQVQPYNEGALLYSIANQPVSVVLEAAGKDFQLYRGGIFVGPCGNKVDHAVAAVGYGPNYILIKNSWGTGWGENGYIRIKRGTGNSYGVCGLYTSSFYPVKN
Description: To test the function of CysE and m-CysE as protease inhibitors their effect on papain hydrolysis of casein was investigated according to the method of Example 10. […] The m-CysE mutant performed similarly (data not shown).
The methods used for active site titration of papain, titration of the molar enzyme inhibitory concentration in cystatin E preparations, and for determination of equilibrium constants for dissociation (Ki) of complexes between cystatin E and cysteine peptidases are described in detail in Hall et al., Biochem. J., 291:123-29 (1993) and Abrahamson, Methods Enzymol., 244:685-700 (1994), both of which are hereby incorporated herein by reference. The enzymes used for equilibrium assays were papain (EC 3.4.22.2; from Sigma, St Louis, Mo.) and cathepsin B (EC 3.4.22.1; from Calbiochem, La Jolla, Calif.). […] Steady state velocities were measured and Ki values were calculated according to Henderson, Biochem J., 127:321-333 (1972), incorporated herein by reference. Corrections for substrate competition were made using Km values of 150=B5M for cathepsins B (Barrett and Kirschke, Methods Enzymol., 80:535-561 (1981) and 60=B5M for papain (Hall et al., Biochem. J., 291:123-29 (1992)), both of which are hereby incorporated herein by reference.

[2] = target: T2, m-CysE (mutant CysE: amino acids 29-143 of SEQ ID NO: 2 plus a 27 amino acid C-terminal fusion product encoded by the pA2 vector)
T2 chain: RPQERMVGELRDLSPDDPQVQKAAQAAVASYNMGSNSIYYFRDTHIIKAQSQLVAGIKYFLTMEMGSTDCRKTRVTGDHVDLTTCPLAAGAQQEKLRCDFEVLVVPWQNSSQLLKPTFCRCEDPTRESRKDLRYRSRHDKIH

[3] = target: T3, recombinant human cystatin E (mature CysE secreted from baculovirus-infected Sf9 cells)
T3 chain: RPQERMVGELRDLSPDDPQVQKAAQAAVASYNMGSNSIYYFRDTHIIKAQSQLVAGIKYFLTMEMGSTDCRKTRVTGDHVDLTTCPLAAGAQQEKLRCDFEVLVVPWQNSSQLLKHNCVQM

B1: recombinant human cystatin E (mature CysE secreted from baculovirus-infected Sf9 cells) (other)
chain: RPQERMVGELRDLSPDDPQVQKAAQAAVASYNMGSNSIYYFRDTHIIKAQSQLVAGIKYFLTMEMGSTDCRKTRVTGDHVDLTTCPLAAGAQQEKLRCDFEVLVVPWQNSSQLLKHNCVQM
modifications: partly N-glycosylated (protein band doublet, a glycosylated and an unglycosylated form)
notes: Full-length cDNA was expressed in Sf9 cells; also called recombinant CysE
Ki [1]: < 10 nM

B2: papain (EC 3.4.22.2; from Sigma) (protein)
chain: IPEYVDWRQKGAVTPVKNQGSCGSCWAFSAVVTIEGIIKIRTGNLNEYSEQELLDCDRRSYGCNGGYPWSALQLVAQYGIHYRNTYPYEGVQRYCRSREKGPYAAKTDGVRQVQPYNEGALLYSIANQPVSVVLEAAGKDFQLYRGGIFVGPCGNKVDHAVAAVGYGPNYILIKNSWGTGWGENGYIRIKRGTGNSYGVCGLYTSSFYPVKN
papain hydrolysis of casein [2]: Both CysE and m-CysE showed a dose- and time-dependent inhibition of papain activity (data not shown)
papain hydrolysis of Bz-Arg-pNA in 10 minute assays [3]: At mM concentrations, the recombinant CysE completely inhibited papain hydrolysis of Bz-Arg-pNA in 10 minute assays
papain hydrolysis of casein [3]: Both CysE and m-CysE showed a dose- and time-dependent inhibition of papain activity (data not shown)
